Measured values as given in article PMC10605006, “RNA structure and multiple weak interactions balance the interplay between RNA binding and phase separation of SARS-CoV-2 nucleocapsid”.

Tests used:
[1] = target: NTD (SARS-CoV-2, UniProt P0DTC9 47-174); assay: fluorescence anisotropy; 1:1 fit; Anisotropy: 50 mM Na phosphate pH 6.5, 150 mM NaCl, 1 mM NaN3, 50 nM RNA; EMSA: 20 mM Tris pH 7.5, 150 mM NaCl, 1 mM DTT, room temp, 25 uM RNA; NTD NMR: 20 mM Na phosphate pH 6.5, 20 mM NaCl, 25 C; CTD NMR: 20 mM Na phosphate pH 6, 200 mM NaCl; conditions: protein: recombinant; tags: none (tag removed by bdSENP1); label: 5',6-carboxyfluorescein (6-FAM) for anisotropy; unlabeled for NMR; single strand, no self-pairing
[2] = target: FL-N (nucleocapsid, full length) (SARS-CoV-2, UniProt P0DTC9 1-419); assay: fluorescence anisotropy; fit with locked stoichiometry n=4 RNA:FL-N; authors call it an estimate; Anisotropy: 50 mM Na phosphate pH 6.5, 150 mM NaCl, 1 mM NaN3, 50 nM RNA; EMSA: 20 mM Tris pH 7.5, 150 mM NaCl, 1 mM DTT, room temp, 25 uM RNA; NTD NMR: 20 mM Na phosphate pH 6.5, 20 mM NaCl, 25 C; CTD NMR: 20 mM Na phosphate pH 6, 200 mM NaCl; conditions: protein: recombinant; tags: His-tag (TALON, imidazole eluted); chain copies: 2; label: 5',6-carboxyfluorescein (6-FAM) for anisotropy; unlabeled for NMR; single strand, no self-pairing

B1: ss-14mer (ssRNA)
RNA: GGCACAUGGACGUC
[1]
  Kd: 22 µM
[2]
  Kd: ~0.08 µM
